Reference: patent US6541212

Biological target: T1, recombinant secreted soluble PSCA with a C-terminal 6XHis and MYC tag (human) (UniProt O43653)
T1 sequence: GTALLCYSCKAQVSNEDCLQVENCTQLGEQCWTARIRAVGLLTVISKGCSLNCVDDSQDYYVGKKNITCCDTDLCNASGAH
Assay: SPR (BIAcore), recombinant PSCA immobilized at 30 RU, mAb in solution

Kd: 1 nM
kon: 168000 M⁻¹ s⁻¹
B1: anti-PSCA monoclonal antibody 1G8 (antibody, part only; not given: light chain, V domains shown, part only)
VH: CFFLMAVVIGVNSEVQLQQSGAELVRSGASVKLSCTASGFNIKDYYIHWVNQRPDQGLEWIGWIDPENGDTEFVPKFQGKATMTADIFSNTAYLHLSSLTSEDTAVYYCKTGGFWGQGTLVTVSAAKTTPPSVYPL
